Experimental data as given in the supplement of paper PMC9112550, “Optimization of the antimicrobial peptide Bac7 by deep mutational scanning” (BMC Biology, 2022).

tested on: Escherichia coli TOP10; assay: shrunken log2 fold change of peptide-encoding DNA abundance (4.5 h post-induction vs induction); higher = less antimicrobial activity (less host growth inhibition); conditions: time post-induction: 4.5 h; library: site-saturation at positions 5, 18, 19, 20
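Note: peptides expressed intracellularly from a pBAD plasmid library in pooled LB shake-flask culture, induced with 0.3% L-arabinose, DNA abundance read by NGS, three biological replicates, DESeq2 with apeglm shrinkage.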

Row | Sequence | shrunken log2 fold change
1 | RRIRGRPPRLPRPRPRPHWIPRP | -0.304
2 | RRIRVRPPRLPRPRPRPTLWPRP | 0.259
3 | RRIRMRPPRLPRPRPRPKAKPRP | 0.0227
4 | RRIRPRPPRLPRPRPRPVEKPRP | 0.00127
5 | RRIRFRPPRLPRPRPRPCARPRP | 0.232
6 | RRIRARPPRLPRPRPRPTKFPRP | 0.0943
7 | RRIRNRPPRLPRPRPRPLKNPRP | -0.234
8 | RRIRHRPPRLPRPRPRPQFSPRP | -0.139
9 | RRIRSRPPRLPRPRPRPCKLPRP | -0.218
10 | RRIRRRPPRLPRPRPRPIWNPRP | 0.0946
11 | RRIRLRPPRLPRPRPRPAMGPRP | 0.248
12 | RRIRVRPPRLPRPRPRPMEPPRP | 0.0643
13 | RRIRVRPPRLPRPRPRPCWHPRP | -0.0327
14 | RRIRLRPPRLPRPRPRPAWAPRP | 0.232
15 | RRIRPRPPRLPRPRPRPFRNPRP | -0.0931
16 | RRIRHRPPRLPRPRPRPSWWPRP | 0.348
17 | RRIRPRPPRLPRPRPRPYWLPRP | -0.377
18 | RRIRVRPPRLPRPRPRPAWWPRP | 0.156
19 | RRIRWRPPRLPRPRPRPYINPRP | -0.536
20 | RRIRYRPPRLPRPRPRPEVLPRP | -0.00228
21 | RRIRGRPPRLPRPRPRPCIQPRP | -0.0256
22 | RRIRVRPPRLPRPRPRPMFFPRP | -0.333
23 | RRIRMRPPRLPRPRPRPAYEPRP | 0.0216
24 | RRIRKRPPRLPRPRPRPNLKPRP | 0.286
25 | RRIRERPPRLPRPRPRPLPWPRP | 0.0953

Row | Sequence | shrunken log2 fold change
26 | RRIRERPPRLPRPRPRPRNKPRP | -0.121
27 | RRIRSRPPRLPRPRPRPDNMPRP | -0.208
28 | RRIRERPPRLPRPRPRPCDIPRP | -0.329
29 | RRIRHRPPRLPRPRPRPRGYPRP | -0.144
30 | RRIRMRPPRLPRPRPRPSTFPRP | 0.147
31 | RRIRMRPPRLPRPRPRPSWGPRP | 0.155
32 | RRIRQRPPRLPRPRPRPCCWPRP | 0.0955
33 | RRIRTRPPRLPRPRPRPYILPRP | -0.0244
34 | RRIRRRPPRLPRPRPRPQAGPRP | -9.87e-05
35 | RRIRQRPPRLPRPRPRPCWNPRP | -0.13
36 | RRIRSRPPRLPRPRPRPGLQPRP | 0.652
37 | RRIRYRPPRLPRPRPRPKIFPRP | -0.297
38 | RRIRERPPRLPRPRPRPTCLPRP | -0.233
39 | RRIRIRPPRLPRPRPRPKKMPRP | 0.222
40 | RRIRSRPPRLPRPRPRPDNSPRP | -0.13
41 | RRIRARPPRLPRPRPRPRMKPRP | 0.457
42 | RRIRSRPPRLPRPRPRPMQHPRP | -0.122
43 | RRIRLRPPRLPRPRPRPKVLPRP | -0.128
44 | RRIRTRPPRLPRPRPRPMSKPRP | -0.0499
45 | RRIRLRPPRLPRPRPRPDGNPRP | -0.0479
46 | RRIRPRPPRLPRPRPRPKGRPRP | -0.086
47 | RRIRLRPPRLPRPRPRPRVDPRP | -0.0238
48 | RRIRFRPPRLPRPRPRPQNGPRP | -0.0443
49 | RRIRCRPPRLPRPRPRPWWIPRP | -0.655
50 | RRIRERPPRLPRPRPRPFFVPRP | -0.292

Row | Sequence | shrunken log2 fold change
51 | RRIRIRPPRLPRPRPRPGEFPRP | -0.0994
52 | RRIRMRPPRLPRPRPRPPWFPRP | 0.568
53 | RRIRMRPPRLPRPRPRPREGPRP | 0.79
54 | RRIRQRPPRLPRPRPRPGKHPRP | 0.0941
55 | RRIRCRPPRLPRPRPRPPWYPRP | -0.0833
56 | RRIRQRPPRLPRPRPRPMQAPRP | 0.116
57 | RRIRKRPPRLPRPRPRPRNCPRP | 0.0613
58 | RRIRWRPPRLPRPRPRPRHQPRP | -0.0137
59 | RRIRPRPPRLPRPRPRPIGWPRP | 0.376
60 | RRIRQRPPRLPRPRPRPRRQPRP | 0.197
61 | RRIRQRPPRLPRPRPRPCYPPRP | -1.5
62 | RRIRGRPPRLPRPRPRPTSDPRP | 0.931
63 | RRIRIRPPRLPRPRPRPPGVPRP | 0.408
64 | RRIRQRPPRLPRPRPRPVQCPRP | -0.16
65 | RRIRCRPPRLPRPRPRPWTEPRP | -0.755
66 | RRIRNRPPRLPRPRPRPECLPRP | 0.254
67 | RRIRGRPPRLPRPRPRPPFWPRP | 1.09
68 | RRIRTRPPRLPRPRPRPDHPPRP | -0.224
69 | RRIRKRPPRLPRPRPRPFPMPRP | 0.0227
70 | RRIRLRPPRLPRPRPRPYHNPRP | -0.712
71 | RRIRPRPPRLPRPRPRPQHDPRP | -0.176
72 | RRIRGRPPRLPRPRPRPYHQPRP | -0.101
73 | RRIRRRPPRLPRPRPRPVISPRP | 0.104
74 | RRIRQRPPRLPRPRPRPEVKPRP | -0.0062
75 | RRIRARPPRLPRPRPRPWTDPRP | -0.0701

Row | Sequence | shrunken log2 fold change
76 | RRIRKRPPRLPRPRPRPGFGPRP | 1.35
77 | RRIRWRPPRLPRPRPRPVCQPRP | -0.0154
78 | RRIRGRPPRLPRPRPRPYGRPRP | 0.047
79 | RRIRDRPPRLPRPRPRPWHIPRP | -0.058
80 | RRIRWRPPRLPRPRPRPNMFPRP | -0.0911
81 | RRIRCRPPRLPRPRPRPQMFPRP | -0.155
82 | RRIRKRPPRLPRPRPRPSIMPRP | -0.195
83 | RRIRVRPPRLPRPRPRPSFDPRP | -0.269
84 | RRIRCRPPRLPRPRPRPWVDPRP | -0.00886
85 | RRIRNRPPRLPRPRPRPMMWPRP | -0.0283
86 | RRIRQRPPRLPRPRPRPKRKPRP | 0.684
87 | RRIRYRPPRLPRPRPRPARYPRP | -0.000578
88 | RRIRMRPPRLPRPRPRPDFCPRP | 0.0837
89 | RRIRCRPPRLPRPRPRPMGTPRP | -0.159
90 | RRIRLRPPRLPRPRPRPGILPRP | -0.105
91 | RRIRIRPPRLPRPRPRPPEGPRP | 0.115
92 | RRIRARPPRLPRPRPRPLQYPRP | 0.00717
93 | RRIRLRPPRLPRPRPRPHCVPRP | -0.068
94 | RRIRMRPPRLPRPRPRPSVAPRP | 0.44
95 | RRIRFRPPRLPRPRPRPAHTPRP | -0.282
96 | RRIRIRPPRLPRPRPRPFLWPRP | -0.0429
97 | RRIRYRPPRLPRPRPRPQIFPRP | 0.0295
98 | RRIRHRPPRLPRPRPRPHPQPRP | -0.185
99 | RRIRFRPPRLPRPRPRPNDYPRP | -0.355
100 | RRIRHRPPRLPRPRPRPVHIPRP | -0.035

Row | Sequence | shrunken log2 fold change
101 | RRIRTRPPRLPRPRPRPFNSPRP | -0.127
102 | RRIRARPPRLPRPRPRPFPCPRP | 0.0215
103 | RRIRLRPPRLPRPRPRPLWNPRP | -0.228
104 | RRIRGRPPRLPRPRPRPRKRPRP | 1.21
105 | RRIRPRPPRLPRPRPRPSYKPRP | -0.564
106 | RRIRERPPRLPRPRPRPIYIPRP | -0.138
107 | RRIRDRPPRLPRPRPRPWGHPRP | 0.0208
108 | RRIRHRPPRLPRPRPRPRLHPRP | 0.0986
109 | RRIRSRPPRLPRPRPRPKPCPRP | 0.122
110 | RRIRPRPPRLPRPRPRPHHKPRP | -0.647
111 | RRIRVRPPRLPRPRPRPCKAPRP | 0.033
112 | RRIRKRPPRLPRPRPRPYIIPRP | -0.0823
113 | RRIRPRPPRLPRPRPRPGAYPRP | 0.0679
114 | RRIRQRPPRLPRPRPRPENSPRP | -0.0723
115 | RRIRGRPPRLPRPRPRPKKHPRP | 0.655
116 | RRIRGRPPRLPRPRPRPLPVPRP | 0.572
117 | RRIRPRPPRLPRPRPRPLSQPRP | -0.185
118 | RRIRHRPPRLPRPRPRPDCMPRP | -0.291
119 | RRIRCRPPRLPRPRPRPIFGPRP | -0.0692
120 | RRIRLRPPRLPRPRPRPMMEPRP | 0.195
121 | RRIRSRPPRLPRPRPRPWNSPRP | -0.19
122 | RRIRCRPPRLPRPRPRPCMAPRP | -0.427
123 | RRIRARPPRLPRPRPRPPSEPRP | 1.17
124 | RRIRARPPRLPRPRPRPTHRPRP | 0.46
125 | RRIRLRPPRLPRPRPRPPWVPRP | 0.344

Row | Sequence | shrunken log2 fold change
126 | RRIRHRPPRLPRPRPRPCVEPRP | 0.197
127 | RRIRDRPPRLPRPRPRPTYGPRP | -0.257
128 | RRIRYRPPRLPRPRPRPFSEPRP | 0.41
129 | RRIRHRPPRLPRPRPRPKQMPRP | -0.0152
130 | RRIRIRPPRLPRPRPRPEGTPRP | 0.0536
131 | RRIRTRPPRLPRPRPRPIPQPRP | 0.284
132 | RRIRQRPPRLPRPRPRPYAKPRP | -0.122
133 | RRIRERPPRLPRPRPRPVIKPRP | -0.201
134 | RRIRERPPRLPRPRPRPCHRPRP | -0.02
135 | RRIRRRPPRLPRPRPRPGPFPRP | 0.162
136 | RRIRTRPPRLPRPRPRPHVCPRP | -0.04
137 | RRIRGRPPRLPRPRPRPDFAPRP | 0.724
138 | RRIRGRPPRLPRPRPRPQFLPRP | -0.0259
139 | RRIRRRPPRLPRPRPRPESHPRP | 0.589
140 | RRIRARPPRLPRPRPRPPEDPRP | 0.308
141 | RRIRPRPPRLPRPRPRPGESPRP | -0.0364
142 | RRIRMRPPRLPRPRPRPFDDPRP | 0.243
143 | RRIRYRPPRLPRPRPRPSFRPRP | -0.59
144 | RRIRPRPPRLPRPRPRPQCPPRP | -0.172
145 | RRIRSRPPRLPRPRPRPLAGPRP | 0.225
146 | RRIRNRPPRLPRPRPRPHSMPRP | -0.027
147 | RRIRYRPPRLPRPRPRPQLSPRP | -0.0974
148 | RRIRPRPPRLPRPRPRPGGGPRP | 0.728
149 | RRIRIRPPRLPRPRPRPRMFPRP | -0.125
150 | RRIRSRPPRLPRPRPRPTLGPRP | 0.378
